Data: article PMC11246219

Molecular target: PELI2 (UniProt Q9HAT8)
Test: anti-FLAG co-IP, phospho-STING blot quantified

STING (from UniProt Q86WV6) STING-5T>A
binding against the reference (reference: STING only-T354, sites T354): lost | binding against the reference (reference: STING only-T356, sites T356): lost
